Reference: patent US20230242902A1, “A HIGHLY ERROR-PRONE […] R[…] FOR TARGETED CONTINUOUS EVOLUTION IN VIVO” (The Regents of the University of California, priority 2017, published 2023)

B1: D333N, K344R: TP-DNAP1 variant (protein)
chain: MDYKDKALNDLRNVYADFDSLPLDFRQILIKDRATLLQKEDVEKKILERQEDAKKYAEYLKQSEIPERISLPNIKRHKGVSISFEETSEDMVLEPRPFIFDGLNIRCFRRETIFSLKNKILNMVKESSSFKNVSRQSVSFMYFKIFNKGKVIASTKSVNIYEDKIDERLEDLCNNFDDVLKKIIDVTYGYESLFVSETYSYVIFYAKSIYFPQPRCVNNWGNNIPNILTFDSFKLFTANKNNVSCIKQCSRFLWQKDFNTLEEMIEYKNGNICIVTPQLHINDVRDIKSFNDIRLYSESPIKTFSVIDNTITYLFYFKEHLGVIFNITKSRHNRRVTKFSPLSRFSDVKNITVCFDIESYFDPEKESNQVNIPFICCASIIYNKVIGNIVDFEGRDCVAQMIEYVVDICGELNISSVELIAHNGGGYDFHYILSSMYNPAAIKNILIRNNSFISFNFAHDGVKFSVKDSYSFLLCSLANASKAFLNEETFKKTDFPHHDLKTADDLYKVYKEWSSVNTEINHVVEKEKLLITSEHIVNFTKNDKSKTLIEWSKDYCRNDVLVLSKVWLEFKNAVEDIFNCELVDQTMTLAGLSYKLFQANMPFDVELRHPNKEDYFNMREALIGGRCISVNGIYKDVLCLDVKSLYPASMAFYDQPYGSFKRVSSRPKDELGIYYVRVTPNRNNKSNFFPIRSHNKITYNNFEESTYIAWYTNVDIDIGLSEGHNIEYIPFDSYGNIGYSWSKKGKIFEKYIKDVLYKLKIKYEKQNNKVKRNVIKIIMNSLWGKFAQKWVNFEYFIKSEDDIDFESEEAYKIWDTDFMLIKKIKESTYSSKPIQNGVFTLSWARYHMKSIWDAGAKEGAECIYSDTDSIFVHKEHFKKNAKFMLNGLKVPIIGSEVGQLELECEFDKLLCAGKKQYMGFYTYFQDGKPCIKEKKRFKGIPSNYIIPELYAHLLSGADKEAKIQFLKFRREWGSVKGYIENKTVKAT
B2: I372C: TP-DNAP1 variant (protein)
chain: MDYKDKALNDLRNVYADFDSLPLDFRQILIKDRATLLQKEDVEKKILERQEDAKKYAEYLKQSEIPERISLPNIKRHKGVSISFEETSEDMVLEPRPFIFDGLNIRCFRRETIFSLKNKILNMVKESSSFKNVSRQSVSFMYFKIFNKGKVIASTKSVNIYEDKIDERLEDLCNNFDDVLKKIIDVTYGYESLFVSETYSYVIFYAKSIYFPQPRCVNNWGNNIPNILTFDSFKLFTANKNNVSCIKQCSRFLWQKDFNTLEEMIEYKNGNICIVTPQLHINDVRDIKSFNDIRLYSESPIKTFSVIDNTITYLFYFKEHLGVIFNITKSRHDRRVTKFSPLSKFSDVKNITVCFDIESYFDPEKESNQVNCPFICCASIIYNKVIGNIVDFEGRDCVAQMIEYVVDICGELNISSVELIAHNGGGYDFHYILSSMYNPAAIKNILIRNNSFISFNFAHDGVKFSVKDSYSFLLCSLANASKAFLNEETFKKTDFPHHDLKTADDLYKVYKEWSSVNTEINHVVEKEKLLITSEHIVNFTKNDKSKTLIEWSKDYCRNDVLVLSKVWLEFKNAVEDIFNCELVDQTMTLAGLSYKLFQANMPFDVELRHPNKEDYFNMREALIGGRCISVNGIYKDVLCLDVKSLYPASMAFYDQPYGSFKRVSSRPKDELGIYYVRVTPNRNNKSNFFPIRSHNKITYNNFEESTYIAWYTNVDIDIGLSEGHNIEYIPFDSYGNIGYSWSKKGKIFEKYIKDVLYKLKIKYEKQNNKVKRNVIKIIMNSLWGKFAQKWVNFEYFIKSEDDIDFESEEAYKIWDTDFMLIKKIKESTYSSKPIQNGVFTLSWARYHMKSIWDAGAKEGAECIYSDTDSIFVHKEHFKKNAKFMLNGLKVPIIGSEVGQLELECEFDKLLCAGKKQYMGFYTYFQDGKPCIKEKKRFKGIPSNYIIPELYAHLLSGADKEAKIQFLKFRREWGSVKGYIENKTVKAT
B3: D333M: TP-DNAP1 variant (protein)
chain: MDYKDKALNDLRNVYADFDSLPLDFRQILIKDRATLLQKEDVEKKILERQEDAKKYAEYLKQSEIPERISLPNIKRHKGVSISFEETSEDMVLEPRPFIFDGLNIRCFRRETIFSLKNKILNMVKESSSFKNVSRQSVSFMYFKIFNKGKVIASTKSVNIYEDKIDERLEDLCNNFDDVLKKIIDVTYGYESLFVSETYSYVIFYAKSIYFPQPRCVNNWGNNIPNILTFDSFKLFTANKNNVSCIKQCSRFLWQKDFNTLEEMIEYKNGNICIVTPQLHINDVRDIKSFNDIRLYSESPIKTFSVIDNTITYLFYFKEHLGVIFNITKSRHMRRVTKFSPLSKFSDVKNITVCFDIESYFDPEKESNQVNIPFICCASIIYNKVIGNIVDFEGRDCVAQMIEYVVDICGELNISSVELIAHNGGGYDFHYILSSMYNPAAIKNILIRNNSFISFNFAHDGVKFSVKDSYSFLLCSLANASKAFLNEETFKKTDFPHHDLKTADDLYKVYKEWSSVNTEINHVVEKEKLLITSEHIVNFTKNDKSKTLIEWSKDYCRNDVLVLSKVWLEFKNAVEDIFNCELVDQTMTLAGLSYKLFQANMPFDVELRHPNKEDYFNMREALIGGRCISVNGIYKDVLCLDVKSLYPASMAFYDQPYGSFKRVSSRPKDELGIYYVRVTPNRNNKSNFFPIRSHNKITYNNFEESTYIAWYTNVDIDIGLSEGHNIEYIPFDSYGNIGYSWSKKGKIFEKYIKDVLYKLKIKYEKQNNKVKRNVIKIIMNSLWGKFAQKWVNFEYFIKSEDDIDFESEEAYKIWDTDFMLIKKIKESTYSSKPIQNGVFTLSWARYHMKSIWDAGAKEGAECIYSDTDSIFVHKEHFKKNAKFMLNGLKVPIIGSEVGQLELECEFDKLLCAGKKQYMGFYTYFQDGKPCIKEKKRFKGIPSNYIIPELYAHLLSGADKEAKIQFLKFRREWGSVKGYIENKTVKAT
B4: K365N: TP-DNAP1 variant (protein)
chain: MDYKDKALNDLRNVYADFDSLPLDFRQILIKDRATLLQKEDVEKKILERQEDAKKYAEYLKQSEIPERISLPNIKRHKGVSISFEETSEDMVLEPRPFIFDGLNIRCFRRETIFSLKNKILNMVKESSSFKNVSRQSVSFMYFKIFNKGKVIASTKSVNIYEDKIDERLEDLCNNFDDVLKKIIDVTYGYESLFVSETYSYVIFYAKSIYFPQPRCVNNWGNNIPNILTFDSFKLFTANKNNVSCIKQCSRFLWQKDFNTLEEMIEYKNGNICIVTPQLHINDVRDIKSFNDIRLYSESPIKTFSVIDNTITYLFYFKEHLGVIFNITKSRHDRRVTKFSPLSKFSDVKNITVCFDIESYFDPENESNQVNIPFICCASIIYNKVIGNIVDFEGRDCVAQMIEYVVDICGELNISSVELIAHNGGGYDFHYILSSMYNPAAIKNILIRNNSFISFNFAHDGVKFSVKDSYSFLLCSLANASKAFLNEETFKKTDFPHHDLKTADDLYKVYKEWSSVNTEINHVVEKEKLLITSEHIVNFTKNDKSKTLIEWSKDYCRNDVLVLSKVWLEFKNAVEDIFNCELVDQTMTLAGLSYKLFQANMPFDVELRHPNKEDYFNMREALIGGRCISVNGIYKDVLCLDVKSLYPASMAFYDQPYGSFKRVSSRPKDELGIYYVRVTPNRNNKSNFFPIRSHNKITYNNFEESTYIAWYTNVDIDIGLSEGHNIEYIPFDSYGNIGYSWSKKGKIFEKYIKDVLYKLKIKYEKQNNKVKRNVIKIIMNSLWGKFAQKWVNFEYFIKSEDDIDFESEEAYKIWDTDFMLIKKIKESTYSSKPIQNGVFTLSWARYHMKSIWDAGAKEGAECIYSDTDSIFVHKEHFKKNAKFMLNGLKVPIIGSEVGQLELECEFDKLLCAGKKQYMGFYTYFQDGKPCIKEKKRFKGIPSNYIIPELYAHLLSGADKEAKIQFLKFRREWGSVKGYIENKTVKAT
B5: D333T: TP-DNAP1 variant (protein)
chain: MDYKDKALNDLRNVYADFDSLPLDFRQILIKDRATLLQKEDVEKKILERQEDAKKYAEYLKQSEIPERISLPNIKRHKGVSISFEETSEDMVLEPRPFIFDGLNIRCFRRETIFSLKNKILNMVKESSSFKNVSRQSVSFMYFKIFNKGKVIASTKSVNIYEDKIDERLEDLCNNFDDVLKKIIDVTYGYESLFVSETYSYVIFYAKSIYFPQPRCVNNWGNNIPNILTFDSFKLFTANKNNVSCIKQCSRFLWQKDFNTLEEMIEYKNGNICIVTPQLHINDVRDIKSFNDIRLYSESPIKTFSVIDNTITYLFYFKEHLGVIFNITKSRHTRRVTKFSPLSKFSDVKNITVCFDIESYFDPEKESNQVNIPFICCASIIYNKVIGNIVDFEGRDCVAQMIEYVVDICGELNISSVELIAHNGGGYDFHYILSSMYNPAAIKNILIRNNSFISFNFAHDGVKFSVKDSYSFLLCSLANASKAFLNEETFKKTDFPHHDLKTADDLYKVYKEWSSVNTEINHVVEKEKLLITSEHIVNFTKNDKSKTLIEWSKDYCRNDVLVLSKVWLEFKNAVEDIFNCELVDQTMTLAGLSYKLFQANMPFDVELRHPNKEDYFNMREALIGGRCISVNGIYKDVLCLDVKSLYPASMAFYDQPYGSFKRVSSRPKDELGIYYVRVTPNRNNKSNFFPIRSHNKITYNNFEESTYIAWYTNVDIDIGLSEGHNIEYIPFDSYGNIGYSWSKKGKIFEKYIKDVLYKLKIKYEKQNNKVKRNVIKIIMNSLWGKFAQKWVNFEYFIKSEDDIDFESEEAYKIWDTDFMLIKKIKESTYSSKPIQNGVFTLSWARYHMKSIWDAGAKEGAECIYSDTDSIFVHKEHFKKNAKFMLNGLKVPIIGSEVGQLELECEFDKLLCAGKKQYMGFYTYFQDGKPCIKEKKRFKGIPSNYIIPELYAHLLSGADKEAKIQFLKFRREWGSVKGYIENKTVKAT
B6: D333V: TP-DNAP1 variant (protein)
chain: MDYKDKALNDLRNVYADFDSLPLDFRQILIKDRATLLQKEDVEKKILERQEDAKKYAEYLKQSEIPERISLPNIKRHKGVSISFEETSEDMVLEPRPFIFDGLNIRCFRRETIFSLKNKILNMVKESSSFKNVSRQSVSFMYFKIFNKGKVIASTKSVNIYEDKIDERLEDLCNNFDDVLKKIIDVTYGYESLFVSETYSYVIFYAKSIYFPQPRCVNNWGNNIPNILTFDSFKLFTANKNNVSCIKQCSRFLWQKDFNTLEEMIEYKNGNICIVTPQLHINDVRDIKSFNDIRLYSESPIKTFSVIDNTITYLFYFKEHLGVIFNITKSRHVRRVTKFSPLSKFSDVKNITVCFDIESYFDPEKESNQVNIPFICCASIIYNKVIGNIVDFEGRDCVAQMIEYVVDICGELNISSVELIAHNGGGYDFHYILSSMYNPAAIKNILIRNNSFISFNFAHDGVKFSVKDSYSFLLCSLANASKAFLNEETFKKTDFPHHDLKTADDLYKVYKEWSSVNTEINHVVEKEKLLITSEHIVNFTKNDKSKTLIEWSKDYCRNDVLVLSKVWLEFKNAVEDIFNCELVDQTMTLAGLSYKLFQANMPFDVELRHPNKEDYFNMREALIGGRCISVNGIYKDVLCLDVKSLYPASMAFYDQPYGSFKRVSSRPKDELGIYYVRVTPNRNNKSNFFPIRSHNKITYNNFEESTYIAWYTNVDIDIGLSEGHNIEYIPFDSYGNIGYSWSKKGKIFEKYIKDVLYKLKIKYEKQNNKVKRNVIKIIMNSLWGKFAQKWVNFEYFIKSEDDIDFESEEAYKIWDTDFMLIKKIKESTYSSKPIQNGVFTLSWARYHMKSIWDAGAKEGAECIYSDTDSIFVHKEHFKKNAKFMLNGLKVPIIGSEVGQLELECEFDKLLCAGKKQYMGFYTYFQDGKPCIKEKKRFKGIPSNYIIPELYAHLLSGADKEAKIQFLKFRREWGSVKGYIENKTVKAT

Tested on: p1
Assay: p1 copy number by p1-encoded mKate2 fluorescence
Type: cell-based, S. cerevisiae
Conditions: OR-Y24, measured in triplicate
How it was run: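 Copy number was inferred from p1-encoded mKate2 fluorescence in saturated OR-Y24 cultures (triplicate), calibrated linearly against qPCR of p1 leu2 relative to genomic LEU3.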

| Molecule | Mean fold-increase over w.t. (p1 copy number) [fold] |
| --- | --- |
| B1 | 2.07 |
| B2 | 1.73 |
| B3 | 2.6 |
| B4 | 1.89 |
| B5 | 2.41 |
| B6 | 2.18 |
